± gives the standard deviation of the averaged measurements.
System: ATP
Experiment: switch fluorescence ratio, 500 uM ATP over buffer (Cy3 cluster intensity, sum of 5 cycles each) (fold (ratio)); higher = stronger signal-on switching upon ATP binding; sequences stand for … in TCGTCGGCAGCGTCAGATGTGTATAAGAGACAGTTTTTTTTTTTTTTTTTTTTTTTTT…TC
Conditions: aptamer strand: ATP DNA aptamer (quencher-CACCTGGGGGAGTATTGCGGAGGAAGG + anchor), 100 nM annealed; ATP concentration: 500 uM
Method in brief: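 The quencher-labelled ATP aptamer, at 100 nM, was annealed to Cy3-labelled switching-strand clusters on a modified Illumina MiSeq flow-cell. The clusters were imaged in selection buffer, then after 15 min with 500 uM ATP at 22 °C, and this buffer/ATP cycle ran five times with NaOH stripping and re-annealing between runs. Per-cluster fluorescence ratios, summed target-cycle over summed buffer-cycle Cy3 intensity, were averaged per switch-domain sequence. Clusters outside 100-1000 RFU were excluded.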
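Note: ATP exposure 15 min at 22 °C before imaging.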

Sequence | switch fluorescence ratio
CGCGAAGGCT | 1.04 ± 0.015
GTAAATAGGC | 0.993 ± 0.023
GGGGTGTGGT | 0.998 ± 0.038
GAAAAAGATT | 0.999 ± 0.017
TATGCTAGGT | 0.983 ± 0.012
AGGTTGTACT | 0.968 ± 0.016
AGTCTTAGGG | 0.972 ± 0.023
CGTAGACGAA | 0.974 ± 0.0094
ACTATCTATT | 0.997 ± 0.034
CTGTGTGCCT | 0.995 ± 0.07
TACTACTTCT | 1.02 ± 0.023
CGATATGGGG | 1.01 ± 0.057
AGTAGGCGCT | 1.01 ± 0.048
GATTGATTGT | 0.9867 ± 0.0061
AAGTTGTGGG | 0.967 ± 0.043
GACAGCCCAG | 1 ± 0.019
TAGTGGGAAT | 0.968 ± 0.032
AGGGCTTGAA | 0.991 ± 0.018
GGTTTCTGCT | 1.02 ± 0.03
TGGATTTTCA | 0.989 ± 0.03
TTGTGGAAAC | 1.02 ± 0.012
TGGTTTCCCA | 0.9738 ± 0.0042
GGTGACGATT | 0.9712 ± 0.0065

Sequence | switch fluorescence ratio
TCTCATGTAG | 1.018 ± 0.009
TGCGTCAGCC | 1.04 ± 0.12
AGGTTGGACT | 0.99145 ± 0.00056
AGGAATTCGG | 0.999 ± 0.017
ATAGCGGTCG | 1.01 ± 0.07
CGTGATCAGC | 1.017 ± 0.0098
TGGGTAGGAG | 0.987 ± 0.025
TGTGGGGATG | 1.01 ± 0.02
TGGGTAATGG | 1.01 ± 0.038
GCTGGTTGGG | 0.98 ± 0.014
TGCTCGGGGG | 1.15 ± 0.17
ATGGAGCGTG | 0.994 ± 0.018
TAGGGTGCGT | 1 ± 0.027
TTGGGTAAGG | 0.993 ± 0.029
GGTAGGCGGG | 0.959 ± 0.018
CGATTTGCCT | 0.9806 ± 0.006
TGCCGGGGCT | 0.967 ± 0.037
TTAGTATCTC | 1.03 ± 0.047
TGGAAAGGGA | 1.01 ± 0.044
TTATCTGTAA | 1.01 ± 0.051
CTTGAGACGG | 1.01 ± 0.017
CACACGTTAT | 1.19 ± 0.019
GTCTTAACGA | 0.981 ± 0.015

Sequence | switch fluorescence ratio
GCAGATCGGT | 0.967 ± 0.019
GCCCTGGGGC | 1.013 ± 0.0075
GGGATTGCTA | 1.03 ± 0.012
CCCGTATGTT | 1.03 ± 0.018
GGTATTGGTA | 1.13 ± 0.25
ATTTGTTGAT | 1 ± 0.021
TATTAGAAGC | 1.01 ± 0.046
GAGGGGAGGT | 0.974 ± 0.025
TCGCCGTTCT | 0.99 ± 0.033
GGGGAAGCGG | 0.991 ± 0.056
CAAAGTAATT | 0.983 ± 0.033
GTTTTACACG | 0.954 ± 0.031
TAGGAAATGT | 1.07 ± 0.087
CCAGCTTCTG | 1 ± 0.065
CGGTTATGGC | 0.978 ± 0.019
ACGGTGAATG | 1 ± 0.038
GGGGAAGCCT | 1.07 ± 0.03
AAATAACTGA | 0.994 ± 0.029
TATCGAAGGT | 0.986 ± 0.017
GGTTCATTCT | 0.9917 ± 0.0062
AACAAATGGG | 1.02 ± 0.052
GATTTTTGGG | 1.01 ± 0.047
TGATCGCTGG | 1.02 ± 0.042

Sequence | switch fluorescence ratio
GCAAGTTCAA | 1.01 ± 0.031
TATACCATTT | 1.01 ± 0.015
GCGTCCCGTG | 0.985 ± 0.11
ACGGACCCGG | 1.36 ± 0.42
GCGTTTAGAA | 0.987 ± 0.036
TCCGAGGGCT | 1.59 ± 0.084
TTGGAAGGTT | 1.32 ± 0.42
GGTTGTTGTT | 0.978 ± 0.029
GCCGGAGGGA | 0.989 ± 0.038
AAGTTTGATA | 0.981 ± 0.058
CGATAAATTA | 0.9971 ± 0.0044
AGAGGTGGAG | 0.993 ± 0.03
GGGGACTAGT | 0.957 ± 0.043
CGCGAAAGAA | 0.9682 ± 0.0033
CCTCGGCGGT | 2.47 ± 1.7
GGATGTAAGT | 0.97 ± 0.017
CACGGTGCGG | 1.01 ± 0.015
CGAAGGTTTG | 0.945 ± 0.058
GGTTGAATTA | 0.979 ± 0.051
GTATTCGCAA | 4.73 ± 0.9
TCCAGGCGAA | 1.08 ± 0.038
ATTTAATTCG | 1.01 ± 0.022
GGGTATATTT | 1 ± 0.065

Sequence | switch fluorescence ratio
TATTGCGGTC | 1.005 ± 0.0018
GATAGGCGGG | 0.9795 ± 0.0094
TGGCGGAGTC | 1 ± 0.022
ATGTGGGATT | 0.965 ± 0.013
TTCGCGTAGA | 1.01 ± 0.014
GCGGGGGCGC | 0.985 ± 0.016
CTTGGGCATG | 0.988 ± 0.019
AGATAACTCA | 1.02 ± 0.048
GCGGCGGAAG | 1.025 ± 0.0042
GGAAGCTTCC | 1.127 ± 0.0032
CTAAGGCCTG | 0.97 ± 0.072
CACTGGGGCA | 1.1 ± 0.15
TGGTAGGATG | 0.964 ± 0.05
TTTCGAAGGG | 1.04 ± 0.07
AGATTAATTG | 0.994 ± 0.008
GGGCGGTCGG | 1 ± 0.03
GAGTTGCAGG | 1.01 ± 0.032
TCGGAAGGCT | 0.999 ± 0.089
GGAGGCACTG | 0.9996 ± 0.0095
ATTGGGGGGT | 0.988 ± 0.015
CCGATGGGGA | 1.156 ± 0.0049
CGGCTTGTG | 0.99726 ± 0.00036
TGCGACTCGG | 0.9988 ± 0.0056

Sequence | switch fluorescence ratio
TCTTACGATC | 1 ± 0.021
AGTTTTTTGC | 0.908 ± 0.025
AGATGCCAGG | 1.1 ± 0.031
ATTGATAGGG | 1.03 ± 0.037
GCCGCGTATC | 1.65 ± 0.12
TTAGGATTGG | 0.986 ± 0.025
CGGCTGTCAC | 1.03 ± 0.025
GGAGTATCCT | 0.981 ± 0.016
AAGGTTTTTT | 1.01 ± 0.02
CTGTAACGTT | 1.015 ± 0.0015
TTAAGTTATA | 1.018 ± 0.0099
ATGGTTAGAT | 1.01 ± 0.017
GATTCACTAA | 0.989 ± 0.054
CTGGTATGGA | 0.971 ± 0.065
TTCCATTAGT | 1.01 ± 0.035
TTAGATGGTT | 0.984 ± 0.021
TCTTACGGAC | 1.31 ± 0.017
AGATTCTGTA | 0.97 ± 0.011
GCTTGATTAG | 0.9963 ± 0.0018
CACGTCCAC | 1.44 ± 0.061
TAAATCACGG | 1.02 ± 0.038
GCATTAGCTT | 1.007 ± 0.01
GGGGATGGTT | 0.974 ± 0.03

Sequence | switch fluorescence ratio
ATATAAATGT | 1.019 ± 0.0066
TTGTATGTTA | 1 ± 0.017
TGGGGCCGCG | 1.048 ± 0.0092
GTATGGGCGT | 1.03 ± 0.018
CATCTATCCG | 0.963 ± 0.012
TAGTTTGTTA | 0.987 ± 0.027
ACGGACCATG | 1.11 ± 0.042
CTTTAAGCTT | 0.9981 ± 0.0027
CTACTTGAGT | 0.985 ± 0.019
AGGTAATCTT | 0.979 ± 0.016
TTTATGAGGA | 1.02 ± 0.021
GCATAACATT | 1.01 ± 0.014
TCGGGGTTTA | 0.994 ± 0.059
GAGGCATATA | 1.9 ± 0.29
AACGGCAGGT | 1.03 ± 0.013
TTGGCAGTCG | 0.998 ± 0.02
ATTGATTTAT | 0.987 ± 0.045
AAAGAAACTC | 1.47 ± 0.7
ACGGCTGCGG | 0.987 ± 0.035
